Assay results as given in patent publication US20240255509A1, “COMPOSITIONS AND METHODS RELATED TO K180 DIMETHYLATED H1.0 PROTEIN” (Aelan Cell Technologies, Inc., priority 2016, published 2024).

What was measured:
Format in all cases: biochemical
H1.0 peptide = target: T1, H1.0 peptide (Homo sapiens, UniProt P07305); experiment: Radiolabel in vitro methylation assay with G9A; conditions: 10 U G9A, 37° C. 1 hour, autoradiography
T1 construct: purchased ThermoFisher Scientific (peptide); NEB (G9A) M0235S (G9A)
Protocol: In order to visualize methylation of H1.0 peptide by G9A methyltransferase in vitro, a methylation assay was performed incorporating a radiolabelled methyl donor, which allows for visualization of methylated peptide on a gel after autoradiography exposure. The following methylation reaction was set up in a 1.5 ml tube: 1×HMT reaction buffer (50 mM Tris-HCl, 5 mM MgCl2, 4 mM dithiothreitol, pH 9.0), 10 U G9A Methyltransferase (NEB, M0235S, Lot #0031201), 3.2 mM Adenosyl-L-Methionine, S-[Methyl-3H] (Perkin Elmer, NET155H, Lot #1664720), 10 μg H1.0 peptide (ThermoFisher Scientific, Biotin-[…] (SEQ ID NO:75)), final volume 10 μl. A control reaction as above but without H1.0 peptide was also created. Reactions were incubated in a thermocycler at 37° C. for 1 hour. Reactions were stopped by incubating on ice for 5 minutes, and subsequently resolved on a 16.5% Tricine gel (BioRad, 4563063). Gels were soaked in 30% methanol, 5% glycerol for 30 minutes before vacuum drying at RT for 24 hours. Autoradiography analysis of dried gels with a phosphorimager (Molecular Dynamics) was then performed to assess effective methylation of H1.0 peptide with methyl-3H groups by the G9A methyltransferase.
The methylation reaction was subsequently resolved on a gel and visualized via autoradiography. […] A control reaction lacking H1.0 peptide yielded no tritium-labeled products.

[1] = target: T2, recombinant human H1.0 protein (Homo sapiens, UniProt P07305); experiment: In vitro methylation with G9A, products identified by LC-MS; conditions: 1 μg full-length protein
T2 construct: full-length recombinant human H1.0 (NEB, M2501S); purchased NEB M2501S (H1.0); M0235S (G9A)
Protocol: (§1) In order to identify the precise sites of methylation by G9A and GLP methyltransferases on histone H1.0, in vitro methylation assays were performed and subsequently analyzed by Liquid Chromatography and High-resolution Mass Spectrometry (LC-MS) analysis. Methylation reactions were set up using either G9A methyltransferase (NEB, M0235S, Lot #0031201) or GLP methyltransferase (Cayman Chemical, 10755). The methyl donor in each reaction was unlabeled S-Adenosyl-L-Methionine (NEB, B9003S). […]
(§2) For the Liquid Chromatography and High-resolution Mass Spectrometry (LC-MS) analysis, samples were prepared as described above and about 1 μg o the product was injected onto a Thermo Scientific Easy nLC system configured with a 10 cm×100 um trap column and a 25 cm×100 um ID resolving column. […] This ensured optimal full-scan data for quantification. […]
(§3) Protein identification was performed using Thermo Scientific Proteome Discoverer version 1.4 (including Sequest and Percolator algorithms) using RefSeqHuman sequence database. […] Protein quantification was performed using Pinpoint version 1.4 software. The Pinpoint quantification workflow included importing the Proteome Discoverer .msf files as spectral libraries. Identified peptides were subsequently quantified in MS .raw files using the Pinpoint peak finding, chromatographic alignment and area calculation algorithms. […]

[2] = target: T3, K180me2 peptide (H1.0 AA 165-182) (Homo sapiens, UniProt P07305); experiment: as above; conditions: K180me2 peptide as substrate
T3 construct: the K180me2 peptide (H1.0 AA 165-182) was used as a substrate; purchased ThermoFisher Scientific (peptide); NEB (G9A) M0235S (G9A)
Protocol: In order to identify the precise sites of methylation by G9A and GLP methyltransferases on histone H1.0, in vitro methylation assays were performed and subsequently analyzed by Liquid Chromatography and High-resolution Mass Spectrometry (LC-MS) analysis. Methylation reactions were set up using either G9A methyltransferase (NEB, M0235S, Lot #0031201) or GLP methyltransferase (Cayman Chemical, 10755). The methyl donor in each reaction was unlabeled S-Adenosyl-L-Methionine (NEB, B9003S). The H1.0 substrate in each reaction was either unmodified H1.0 peptide labeled with biotin (ThermoFisher Scientific, Biotin-[…] (SEQ ID NO:75)), di-methylated H1.0 peptide (ThermoFisher Scientific, Biotin-[…]^(me2)PK (SEQ ID NO:76)), or full-length recombinant human H1.0 (NEB, M2501S). Methylation reactions were set up in triplicate for each condition as follows: 1×HMT reaction buffer (50 mM Tris-HCl, 5 mM MgCl2, 4 mM dithiothreitol, pH 9.0); 10 U G9A or GLP Methyltransferase; 3.2 mM S-Adenosyl-L-Methionine; 500 ng unmodified or modified H1.0 peptide, or 1 μg full-length protein; final volume 10 μl. As controls, reactions were set up as above but without any methyltransferase present. […]
as §2, §3

[3] = target: T4, unmodified H1.0 peptide ([…] (SEQ ID NO:42)) (Homo sapiens, UniProt P07305); experiment: as above
T4 construct: purchased ThermoFisher Scientific (peptide); NEB (G9A) M0235S (G9A)
Protocol: as §1, §2, §3

B1: G9A: recombinant G9A methyltransferase (NEB, M0235S) (protein, UniProt Q96KQ7 2-1210, looked up)
Histone-lysine …: AAAAGAAAAAAAEGEAPAEMGALLLEKETRGATERVHGSLGDTPRSEETLPKATPDSLEPAGPSSPASVTVTVGDEGADTPVGATPLIGDESENLEGDGDLRGGRILLGHATKSFPSSPSKGGSCPSRAKMSMTGAGKSPPSVQSLAMRLLSMPGAQGAAAAGSEPPPATTSPEGQPKVHRARKTMSKPGNGQPPVPEKRPPEIQHFRMSDDVHSLGKVTSDLAKRRKLNSGGGLSEELGSARRSGEVTLTKGDPGSLEEWETVVGDDFSLYYDSYSVDERVDSDSKSEVEALTEQLSEEEEEEEEEEEEEEEEEEEEEEEEDEESGNQSDRSGSSGRRKAKKKWRKDSPWVKPSRKRRKREPPRAKEPRGVNGVGSSGPSEYMEVPLGSLELPSEGTLSPNHAGVSNDTSSLETERGFEELPLCSCRMEAPKIDRISERAGHKCMATESVDGELSGCNAAILKRETMRPSSRVALMVLCETHRARMVKHHCCPGCGYFCTAGTFLECHPDFRVAHRFHKACVSQLNGMVFCPHCGEDASEAQEVTIPRGDGVTPPAGTAAPAPPPLSQDVPGRADTSQPSARMRGHGEPRRPPCDPLADTIDSSGPSLTLPNGGCLSAVGLPLGPGREALEKALVIQESERRKKLRFHPRQLYLSVKQGELQKVILMLLDNLDPNFQSDQQSKRTPLHAAAQKGSVEICHVLLQAGANINAVDKQQRTPLMEAVVNNHLEVARYMVQRGGCVYSKEEDGSTCLHHAAKIGNLEMVSLLLSTGQVDVNAQDSGGWTPIIWAAEHKHIEVIRMLLTRGADVTLTDNEENICLHWASFTGSAAIAEVLLNARCDLHAVNYHGDTPLHIAARESYHDCVLLFLSRGANPELRNKEGDTAWDLTPERSDVWFALQLNRKLRLGVGNRAIRTEKIICRDVARGYENVPIPCVNGVDGEPCPEDYKYISENCETSTMNIDRNITHLQHCTCVDDCSSSNCLCGQLSIRCWYDKDGRLLQEFNKIEPPLIFECNQACSCWRNCKNRVVQSGIKVRLQLYRTAKMGWGVRALQTIPQGTFICEYVGELISDAEADVREDDSYLFDLDNKDGEVYCIDARYYGNISRFINHLCDPNIIPVRVFMLHQDLRFPRIAFFSSRDIRTGEELGFDYGDRFWDIKSKYFTCQCGSEKCKHSAEAIALEQSRLARLDPHPELLPELGSLPPVNT
- methylation of H1.0 peptide with tritium-labeled methyl groups (band at 4 kDa) (H1.0 peptide): capable of methylating H1.0 peptide
- sites of methylation on full-length H1.0 [1]: methylates C-terminal lysine residues, including H1.0K180me2
- H1.0K166me1K180me2, % of the total peptide in the reaction [2]: 1.27%
- H1.0K174me1K180me3, % of the total peptide in the reaction [2]: 1.06%
- H1.0K174me3K175me3K177me1K180me2, % of the total peptide in the reaction [2]: 0.35%
- peptides dimethylated at H1.0K180, % of all peptides ([3]; 10 U enzyme, 3.2 mM S-Adenosyl-L-Methionine, 37° C. 1 hour, spectral counts): 99.9%
- estimated methylation efficiency for K180 dimethylation ([3]; other lysines (K166, K174, K175 or K177) not dimethylated): about 99%
